Reference: patent publication US11319341B2, “Immune-stimulating soluble doxorubicin-conjugated complex” (Yafei (Shanghai) Biopharmaceutical Co., Ltd., priority 2016, dated 2022)
Residues, ends and D or L forms follow the SMILES beside them. *: point of attachment. Doxorubicin(3'-N) = COc1cccc2c1C(=O)c1c(O)c3c(c(O)c1C2=O)C[C@@](O)(C(=O)CO)C[C@@H]3O[C@H]1C[C@H](N*)[C@H](O)[C@H](C)O1; Butanoyl(4-maleimido) = O=C1C=CC(=O)N1CCCC(=O)*; Propanoyl(3-maleimido) = O=C1C=CC(=O)N1CCC(=O)*; PEG6 = NCCOCCOCCOCCOCCOCCOCCC(=O)O; PEG4 = NCCOCCOCCOCCOCCC(=O)O; PEG3 = NCCOCCOCCOCCC(=O)O; PEG2 = NCCOCCOCCC(=O)O

Test: Water solubility of freeze-dried compounds in water (observation and HPLC)

| SMILES | solubility |
| --- | --- |
| COc1cccc2c1C(=O)c1c(O)c3c(c(O)c1C2=O)C[C@@](O)(C(=O)CO)C[C@@H]3O[C@H]1C[C@H](NC(=O)[C@H](CC(C)C)NC(=O)[C@H](CC(N)=O)NC(=O)[C@H](C)NC(=O)[C@H](C)NC(=O)[C@H](CCC(=O)O)NC(=O)CCOCCOCCOCCOCCOCCOCCNC(=O)CCCN2C(=O)C=CC2=O)[C@H](O)[C@H](C)O1 [QHL-081] ({Butanoyl(4-maleimido)-PEG6}-EAANL-{Doxorubicin(3'-N)}) | > 30 mg/mL |
| COc1cccc2c1C(=O)c1c(O)c3c(c(O)c1C2=O)C[C@@](O)(C(=O)CO)C[C@@H]3O[C@H]1C[C@H](NC(=O)[C@H](CC(C)C)NC(=O)[C@H](CC(N)=O)NC(=O)[C@H](C)NC(=O)[C@H](C)NC(=O)[C@H](CC(=O)O)NC(=O)CCOCCOCCOCCOCCOCCOCCNC(=O)CCCN2C(=O)C=CC2=O)[C@H](O)[C@H](C)O1 [QHL-084] ({Butanoyl(4-maleimido)-PEG6}-DAANL-{Doxorubicin(3'-N)}) | > 30 mg/mL |
| COc1cccc2c1C(=O)c1c(O)c3c(c(O)c1C2=O)C[C@@](O)(C(=O)CO)C[C@@H]3O[C@H]1C[C@H](NC(=O)[C@H](CC(C)C)NC(=O)[C@H](CC(N)=O)NC(=O)[C@H](C)NC(=O)[C@H](C)NC(=O)CCOCCOCCOCCNC(=O)CCN2C(=O)C=CC2=O)[C@H](O)[C@H](C)O1 [QHL-090] ({Propanoyl(3-maleimido)-PEG3}-AANL-{Doxorubicin(3'-N)}) | > 10 mg/mL |
| COc1cccc2c1C(=O)c1c(O)c3c(c(O)c1C2=O)C[C@@](O)(C(=O)CO)C[C@@H]3O[C@H]1C[C@H](NC(=O)[C@H](CC(C)C)NC(=O)[C@H](CC(N)=O)NC(=O)[C@H](C)NC(=O)[C@H](C)NC(=O)CCOCCOCCNC(=O)CCCN2C(=O)C=CC2=O)[C@H](O)[C@H](C)O1 [QHL-099] ({Butanoyl(4-maleimido)-PEG2}-AANL-{Doxorubicin(3'-N)}) | > 20 mg/mL |
| COc1cccc2c1C(=O)c1c(O)c3c(c(O)c1C2=O)C[C@@](O)(C(=O)CO)C[C@@H]3O[C@H]1C[C@H](NC(=O)[C@H](CC(C)C)NC(=O)[C@H](CC(N)=O)NC(=O)[C@H](C)NC(=O)[C@H](C)NC(=O)CCOCCOCCOCCNC(=O)CCCN2C(=O)C=CC2=O)[C@H](O)[C@H](C)O1 [QHL-102] ({Butanoyl(4-maleimido)-PEG3}-AANL-{Doxorubicin(3'-N)}) | > 10 mg/mL |
| COc1cccc2c1C(=O)c1c(O)c3c(c(O)c1C2=O)C[C@@](O)(C(=O)CO)C[C@@H]3O[C@H]1C[C@H](NC(=O)[C@H](CC(C)C)NC(=O)[C@H](CC(N)=O)NC(=O)[C@H](C)NC(=O)[C@H](C)NC(=O)CCOCCOCCOCCOCCNC(=O)CCCN2C(=O)C=CC2=O)[C@H](O)[C@H](C)O1 [QHL-105] ({Butanoyl(4-maleimido)-PEG4}-AANL-{Doxorubicin(3'-N)}) | > 10 mg/mL |
| COc1cccc2c1C(=O)c1c(O)c3c(c(O)c1C2=O)C[C@@](O)(C(=O)CO)C[C@@H]3O[C@H]1C[C@H](NC(=O)[C@H](CC(C)C)NC(=O)[C@H](CC(N)=O)NC(=O)[C@H](C)NC(=O)[C@H](C)NC(=O)CCOCCOCCOCCOCCOCCOCCNC(=O)CCCN2C(=O)C=CC2=O)[C@H](O)[C@H](C)O1 [QHL-108] ({Butanoyl(4-maleimido)-PEG6}-AANL-{Doxorubicin(3'-N)}) | > 20 mg/mL |
| COc1cccc2c1C(=O)c1c(O)c3c(c(O)c1C2=O)C[C@@](O)(C(=O)CO)C[C@@H]3O[C@H]1C[C@H](NC(=O)[C@H](CC(C)C)NC(=O)[C@H](CC(N)=O)NC(=O)[C@H](C)NC(=O)[C@H](C)NC(=O)[C@H](CCC(=O)O)NC(=O)CCN2C(=O)C=CC2=O)[C@H](O)[C@H](C)O1 [QHL-111] ({Propanoyl(3-maleimido)}-EAANL-{Doxorubicin(3'-N)}) | > 10 mg/mL |
| COc1cccc2c1C(=O)c1c(O)c3c(c(O)c1C2=O)C[C@@](O)(C(=O)CO)C[C@@H]3O[C@H]1C[C@H](NC(=O)[C@H](CC(C)C)NC(=O)[C@H](CC(N)=O)NC(=O)[C@H](C)NC(=O)[C@H](C)NC(=O)[C@H](CC(=O)O)NC(=O)CCN2C(=O)C=CC2=O)[C@H](O)[C@H](C)O1 [QHL-114] ({Propanoyl(3-maleimido)}-DAANL-{Doxorubicin(3'-N)}) | > 15 mg/mL |
